Data from article PMC5892938, “SARNAclust: Semi-automatic detection of RNA protein binding motifs from immunoprecipitation data”.
Changes are numbered by the printed parent chain.

B1: consensus (structured_RNA)
RNA: GGUCACGUCUCAAUCAACUCCCAAAGGCCCUUUUCAGGGCCACCCAUCAACAGCUCGCAGUCAAG
B2: consensus (structured_RNA)
RNA: B1 RNA with C29U, C30U, U33C
B3: consensus (structured_RNA)
RNA: B1 RNA with C28U, C29U, C35U
B4: consensus (structured_RNA)
RNA: B1 RNA with C29U, C30U, G38A
B5: consensus (structured_RNA)
RNA: B1 RNA with C29U, C30U, G37A, G38A
B6: consensus (structured_RNA)
RNA: B1 RNA with C28U, U33C, C35G
B7: consensus (structured_RNA)
RNA: B1 RNA with C29U, U33C, C35G
B8: consensus (structured_RNA)
RNA: B1 RNA with C29U, C30U, C35A
B9: consensus (structured_RNA)
RNA: B1 RNA with C29U
B10: consensus (structured_RNA)
RNA: B1 RNA with C28U, C30U, U33C, C35A
B11: consensus (structured_RNA)
RNA: B1 RNA with C29U, C30U, U33C, G38A
B12: consensus (structured_RNA)
RNA: B1 RNA with C29U, C30U
B13: consensus (structured_RNA)
RNA: B1 RNA with C28U, C30U, U33C, G37A, G39A
B14: consensus (structured_RNA)
RNA: B1 RNA with C28U, C29U, C30U, G38A, G39A
B15: consensus (structured_RNA)
RNA: B1 RNA with C28U, C30U, C35A, G37A, G39A
B16: consensus (structured_RNA)
RNA: B1 RNA with C28U, C30U, U33C, G39A
B17: consensus (structured_RNA)
RNA: B1 RNA with C29U, C30U, C35U, G38A
B18: consensus (structured_RNA)
RNA: B1 RNA with C30U
B19: consensus (structured_RNA)
RNA: B1 RNA with C29U, C30U, C35A, G38A
B20: consensus (structured_RNA)
RNA: B1 RNA with C30U, C35U, G37A
B21: consensus (structured_RNA)
RNA: B1 RNA with C30U, C35A
B22: consensus (structured_RNA)
RNA: B1 RNA with C28U, C30U, C35U
B23: consensus (structured_RNA)
RNA: B1 RNA with C28U, C29U, C30U, C35A, G38A, G39A
B24: consensus (structured_RNA)
RNA: B1 RNA with C30U, U33C
B25: consensus (structured_RNA)
RNA: B1 RNA with C28U, C30U, C35A, G39A
B26: consensus (structured_RNA)
RNA: B1 RNA with C28U, C30U
B27: consensus (structured_RNA)
RNA: B1 RNA with C28U, C29U, C30U, U33C, C35G, G37A, G38A, G39A
B28: consensus (structured_RNA)
RNA: B1 RNA with C28U, C29U, C30U, U33C, G37A, G38A
B29: consensus (structured_RNA)
RNA: B1 RNA with C29U, C30U, U33C, C35A, G38A
B30: consensus (structured_RNA)
RNA: B1 RNA with C28U, C29U, C30U, U33C, C35U, G37A, G38A
B31: consensus (structured_RNA)
RNA: B1 RNA with C28U, C29U, U33C, C35U, G38A
B32: consensus (structured_RNA)
RNA: B1 RNA with C28U, C30U, U33C
B33: consensus (structured_RNA)
RNA: B1 RNA with C28U, C29U, C30U, C35G, G37A, G38A, G39A
B34: consensus (structured_RNA)
RNA: B1 RNA with C29U, C30U, C35U
B35: consensus (structured_RNA)
RNA: B1 RNA with C28U, C30U, U33C, C35U, G39A
B36: consensus (structured_RNA)
RNA: B1 RNA with C30U, C35U
B37: consensus (structured_RNA)
RNA: B1 RNA with C28U, C29U, U33C, C35U, G39A
B38: consensus (structured_RNA)
RNA: B1 RNA with C30U, U33C, C35U
B39: consensus (structured_RNA)
RNA: B1 RNA with C30U, U33C, C35A
B40: consensus (structured_RNA)
RNA: B1 RNA with C28U, C30U, U33C, C35G, G37A
B41: consensus (structured_RNA)
RNA: B1 RNA with C28U, C35A, G39A
B42: consensus (structured_RNA)
RNA: B1 RNA with C28U, C30U, U33C, C35A, G39A
B43: consensus (structured_RNA)
RNA: B1 RNA with C28U, C29U, C30U, U33C, C35A, G38A, G39A
B44: consensus (structured_RNA)
RNA: B1 RNA with C30U, U33C, C35U, G37A
B45: consensus (structured_RNA)
RNA: B1 RNA with C28U, C30U, G39A
B46: consensus (structured_RNA)
RNA: B1 RNA with C28U, C30U, C35A
B47: consensus (structured_RNA)
RNA: B1 RNA with C28U, C29U, C30U, C35U, G37A, G38A
B48: consensus (structured_RNA)
RNA: B1 RNA with C29U, C30U, U33C, C35G, G37A
B49: consensus (structured_RNA)
RNA: B1 RNA with C29U, C35A, G38A
B50: consensus (structured_RNA)
RNA: B1 RNA with C35A
B51: consensus (structured_RNA)
RNA: B1 RNA with C28U, C29U, C30U, C35G, G37A, G38A
B52: consensus (structured_RNA)
RNA: B1 RNA with C30U, C35G
B53: consensus (structured_RNA)
RNA: B1 RNA with C29U, C30U, U33C, C35U
B54: consensus (structured_RNA)
RNA: B1 RNA with C28U, G39A
B55: consensus (structured_RNA)
RNA: B1 RNA with C28U, C29U, C30U, G38A
B56: consensus (structured_RNA)
RNA: B1 RNA with C29U, C30U, U33C, C35A
B57: consensus (structured_RNA)
RNA: B1 RNA with C28U, C30U, C35U, G39A
B58: consensus (structured_RNA)
RNA: B1 RNA with C30U, U33C, G37A

Each binder was assayed against GST-SBP-SLBP (stem-loop binding protein) (Homo sapiens, UniProt Q14493 1-270) (assay: targeted RNA Bind-n-Seq; RBNS binding buffer: 25 mM Tris pH 7.5, 150 mM KCl, 3 mM MgCl2, 0.1% Tween, 0.5 mg/mL BSA, 1 mM DTT; 27 nM protein, 750 pM RNA pool; temperature not stated; high values mean tight binding). Details: protein: recombinant; tags: N-terminal GST and SBP (pGEX6P1-SBP).
Summary of the method: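 A designed RNA oligo pool, transcribed with T7, was present at 750 pM and incubated in RBNS binding buffer with 27 nM of GST-SBP-tagged protein that had been expressed in Rosetta(DE3) pLysS E. coli and purified with glutathione. After reverse transcription with a 10-nucleotide barcoded primer and PCR, the bound RNA was sequenced as 200-cycle paired-end reads on a MiSeq. Each sequence's binding signal is the DEseq binary-logarithm fold change in read counts, computed after joining reads with FLASH, aligning with HISAT2 and collapsing by barcode.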
With B1 the binding signal was 3.92 ± 0.166 log2 fold change. B2 showed a binding signal of 1.31 ± 0.138 log2 fold change. In the case of B3, the binding signal is reported as 2.15 ± 0.148 log2 fold change. B4 showed a binding signal of 1.75 ± 0.155 log2 fold change. B5 showed a binding signal of 3.5 ± 0.119 log2 fold change. Work on B6 yielded a binding signal of 2.11 ± 0.151 log2 fold change. Work on B7 yielded a binding signal of 2.28 ± 0.154 log2 fold change. B8 was tested, and the binding signal was 1.95 ± 0.161 log2 fold change. Work on B9 yielded a binding signal of 3.57 ± 0.122 log2 fold change. B10 gave a binding signal of 1.09 ± 0.185 log2 fold change. In the case of B11, the binding signal is reported as 0.979 ± 0.14 log2 fold change. In the case of B12, the binding signal is reported as 1.99 ± 0.171 log2 fold change. B13 showed a binding signal of 3.5 ± 0.113 log2 fold change. In the case of B14, the binding signal is reported as 0.928 ± 0.165 log2 fold change. Binder B15 has a binding signal of 3.5 ± 0.12 log2 fold change. B16 gave a binding signal of 1.31 ± 0.141 log2 fold change. B17 was tested, and the binding signal was 0.854 ± 0.146 log2 fold change. In the case of B18, the binding signal is reported as 2.4 ± 0.137 log2 fold change. B19 showed a binding signal of 1.64 ± 0.15 log2 fold change. Binder B20 has a binding signal of 3.59 ± 0.129 log2 fold change. Binder B21 has a binding signal of 2.24 ± 0.139 log2 fold change. B22 was tested, and the binding signal was 0.724 ± 0.177 log2 fold change. With B23 the binding signal was 0.759 ± 0.157 log2 fold change. With B24 the binding signal was 1.93 ± 0.129 log2 fold change. Work on B25 yielded a binding signal of 1.91 ± 0.158 log2 fold change. B26 showed a binding signal of 1.25 ± 0.15 log2 fold change. B27 showed a binding signal of 2.15 ± 0.131 log2 fold change. In the case of B28, the binding signal is reported as 2.22 ± 0.14 log2 fold change. B29 showed a binding signal of 1.33 ± 0.16 log2 fold change. Binder B30 has a binding signal of 1.97 ± 0.127 log2 fold change. In the case of B31, the binding signal is reported as 2.28 ± 0.146 log2 fold change. B32 showed a binding signal of 0.935 ± 0.161 log2 fold change. Binder B33 has a binding signal of 2.28 ± 0.151 log2 fold change. For B34, the binding signal was 1.3 ± 0.179 log2 fold change. B35 gave a binding signal of 0.816 ± 0.166 log2 fold change. B36 was tested, and the binding signal was 1.9 ± 0.154 log2 fold change. With B37 the binding signal was 2.26 ± 0.144 log2 fold change. B38 was tested, and the binding signal was 1.28 ± 0.157 log2 fold change. Work on B39 yielded a binding signal of 2.22 ± 0.143 log2 fold change. Binder B40 has a binding signal of 2.15 ± 0.13 log2 fold change. Binder B41 has a binding signal of 3.61 ± 0.128 log2 fold change. B42 showed a binding signal of 1.6 ± 0.134 log2 fold change. For B43, the binding signal was 0.796 ± 0.151 log2 fold change. Binder B44 has a binding signal of 3.55 ± 0.131 log2 fold change. In the case of B45, the binding signal is reported as 1.9 ± 0.145 log2 fold change. B46 showed a binding signal of 1.43 ± 0.177 log2 fold change. B47 showed a binding signal of 2.23 ± 0.157 log2 fold change. With B48 the binding signal was 2 ± 0.133 log2 fold change. B49 was tested, and the binding signal was 3.5 ± 0.152 log2 fold change. In the case of B50, the binding signal is reported as 3.52 ± 0.16 log2 fold change. In the case of B51, the binding signal is reported as 1.56 ± 0.147 log2 fold change. In the case of B52, the binding signal is reported as 1.42 ± 0.169 log2 fold change. B53 was tested, and the binding signal was 0.933 ± 0.168 log2 fold change. With B54 the binding signal was 3.59 ± 0.127 log2 fold change. In the case of B55, the binding signal is reported as 0.623 ± 0.163 log2 fold change. B56 gave a binding signal of 1.52 ± 0.156 log2 fold change. B57 gave a binding signal of 0.994 ± 0.148 log2 fold change. B58 gave a binding signal of 3.84 ± 0.117 log2 fold change.
